The record followed here is IntAct's records for PubMed 9528782.

B1: DBF2 kinase activator protein MOB1 (Saccharomyces cerevisiae), P40484 (parent)
chain: MSFLQNFHISPGQTIRSTRGFKWNTANAANNAGSVSPTKATPHNNTINGNNNNANTINNRADFTNNPVNGYNESDHGRMSPVLTTPKRHAPPPEQLQNVTDFNYTPSHQKPFLQPQAGTTVTTHQDIKQIVEMTLGSEGVLNQAVKLPRGEDENEWLAVHCVDFYNQINMLYGSITEFCSPQTCPRMIATNEYEYLWAFQKGQPPVSVSAPKYVECLMRWCQDQFDDESLFPSKVTGTFPEGFIQRVIQPILRRLFRVYAHIYCHHFNEILELNLQTVLNTSFRHFCLFAQEFELLRPADFGPLLELVMELRDR
partner: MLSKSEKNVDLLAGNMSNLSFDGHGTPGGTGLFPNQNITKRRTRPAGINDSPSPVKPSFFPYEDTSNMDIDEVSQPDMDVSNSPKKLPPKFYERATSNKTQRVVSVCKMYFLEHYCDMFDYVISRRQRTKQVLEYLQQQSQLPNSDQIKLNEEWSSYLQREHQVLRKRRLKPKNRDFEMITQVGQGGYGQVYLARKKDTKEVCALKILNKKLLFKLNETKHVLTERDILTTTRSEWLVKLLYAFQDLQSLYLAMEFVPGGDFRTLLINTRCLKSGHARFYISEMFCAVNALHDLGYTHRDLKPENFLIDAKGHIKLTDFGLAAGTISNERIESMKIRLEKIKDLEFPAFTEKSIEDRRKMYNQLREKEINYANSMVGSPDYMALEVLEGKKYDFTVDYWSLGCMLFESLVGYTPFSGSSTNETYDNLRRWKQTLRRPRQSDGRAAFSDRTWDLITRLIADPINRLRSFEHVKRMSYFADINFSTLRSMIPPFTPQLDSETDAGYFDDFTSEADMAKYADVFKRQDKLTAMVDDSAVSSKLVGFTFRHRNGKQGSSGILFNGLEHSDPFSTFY
B2: DBF2 kinase activator protein MOB1 (Saccharomyces cerevisiae), P40484 (parent)
chain: B1 chain
partner: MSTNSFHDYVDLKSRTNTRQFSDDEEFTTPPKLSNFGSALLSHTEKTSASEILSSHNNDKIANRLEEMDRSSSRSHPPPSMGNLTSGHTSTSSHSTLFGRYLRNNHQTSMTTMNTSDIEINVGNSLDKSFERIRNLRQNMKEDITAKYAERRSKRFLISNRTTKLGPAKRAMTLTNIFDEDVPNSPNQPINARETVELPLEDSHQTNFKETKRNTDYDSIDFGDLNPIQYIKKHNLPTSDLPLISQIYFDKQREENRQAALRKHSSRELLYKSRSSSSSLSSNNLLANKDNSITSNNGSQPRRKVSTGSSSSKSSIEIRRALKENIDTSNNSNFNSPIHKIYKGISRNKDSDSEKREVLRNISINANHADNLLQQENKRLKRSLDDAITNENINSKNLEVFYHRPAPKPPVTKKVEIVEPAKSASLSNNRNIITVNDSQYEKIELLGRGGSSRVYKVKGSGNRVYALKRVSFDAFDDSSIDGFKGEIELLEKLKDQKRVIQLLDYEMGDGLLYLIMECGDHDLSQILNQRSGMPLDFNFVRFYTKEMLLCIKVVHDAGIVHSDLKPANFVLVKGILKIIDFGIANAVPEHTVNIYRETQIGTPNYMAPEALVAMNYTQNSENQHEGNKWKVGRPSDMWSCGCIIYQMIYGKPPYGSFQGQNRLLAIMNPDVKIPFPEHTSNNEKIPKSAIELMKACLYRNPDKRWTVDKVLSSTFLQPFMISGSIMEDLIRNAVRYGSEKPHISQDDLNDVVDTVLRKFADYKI
B3: DBF2 kinase activator protein MOB1 (Saccharomyces cerevisiae), P40484 (parent)
chain: B1 chain
partner: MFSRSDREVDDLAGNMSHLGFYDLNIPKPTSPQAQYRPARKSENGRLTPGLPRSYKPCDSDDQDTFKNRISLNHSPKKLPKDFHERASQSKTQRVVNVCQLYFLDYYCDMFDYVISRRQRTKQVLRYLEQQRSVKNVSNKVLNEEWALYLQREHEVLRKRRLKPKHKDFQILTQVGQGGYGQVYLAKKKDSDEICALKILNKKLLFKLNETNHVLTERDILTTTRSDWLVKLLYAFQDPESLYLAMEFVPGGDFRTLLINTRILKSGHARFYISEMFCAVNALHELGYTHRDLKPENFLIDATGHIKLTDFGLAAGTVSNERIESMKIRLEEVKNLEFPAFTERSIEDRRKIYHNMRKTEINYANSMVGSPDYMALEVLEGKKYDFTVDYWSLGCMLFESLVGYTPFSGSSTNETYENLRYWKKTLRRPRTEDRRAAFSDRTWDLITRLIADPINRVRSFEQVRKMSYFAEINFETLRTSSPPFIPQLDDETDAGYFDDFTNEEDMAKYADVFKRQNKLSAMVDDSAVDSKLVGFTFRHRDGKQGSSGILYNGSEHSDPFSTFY

The first assay covers variants of B1. The following applies: with dbf2_yeast DBF2, P22204.
In the case of T85P;Q167R;T183H, the “effect of a mutation on the interaction” value is “decreasing interaction strength”.

Consider L157P;A158I, for which the “effect of a mutation on the interaction” value is “disrupting interaction strength”.

Consider E151K, for which the “effect of a mutation on the interaction” value is given as “disrupting interaction strength”.

The variants in a further assay derive from B2. The following applies: with mps1_yeast MPS1, P54199.
As to L157P;A158I, the “effect of a mutation on the interaction” value is recorded as “with no effect”.

Turning to T85P;Q167R;T183H, the “effect of a mutation on the interaction” value is listed as “decreasing interaction strength”.

On to E151K, for which the “effect of a mutation on the interaction” value is “with no effect”.

In another assay the parent is B3. The conditions noted are these: with dbf20_yeast DBF20, P32328.
As for T85P;Q167R;T183H, the “effect of a mutation on the interaction” value was “disrupting interaction strength”.

With E151K, the “effect of a mutation on the interaction” value was “disrupting interaction strength”.

For the variant L157P;A158I, the “effect of a mutation on the interaction” value is “disrupting interaction strength”.
